Experimental data as given in the supplement of paper PMC10567573.
± gives the standard deviation.

Experiment: protein stability index of a GFP-peptide fusion (GPS, HEK-293T) (PSI 1-6); higher = more stable
[1] = treatment: DMSO, c terminus: a fixed tail appended
[2] = treatment: MLN4924 1 uM, 8 h, c terminus: a fixed tail appended
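Note: 24-mer peptide tiles fused after GFP, lentivirally expressed, FACS-sorted into six equal bins by GFP/DsRed ratio, decoded by Illumina sequencing, PSI is the read-weighted mean bin number.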

Sequence | protein stability index [1] | protein stability index [2] | protein stability index (treatment: DMSO, c terminus: native) | protein stability index (treatment: MLN4924 1 uM, 8 h, c terminus: native)
RFQAMEETHLRHMKALLGSYAHSV [FCHO1] | 2.38 ± 0.37 | 2.38 ± 0.31 | – | –
RGDSVKVENPSTASHSLSPSEHVQ [ZNF649] | 5.08 ± 0.37 | 5.19 ± 0.6 | – | –
RGRASGFAGSMFGSVALGPVCPTV [KRT71] | 2.7 ± 0.14 | 2.88 ± 0.28 | – | –
RIHSGEKPYECNECGKAFSQSSYL [ZNF232] | 2.85 ± 0.068 | 3.1 ± 0.35 | – | –
RITQYLDAGGIPRTAQSEETRVWH [CAMK2A] | 3.03 ± 0.29 | 3.24 ± 0.39 | – | –
RIVKIWDMTPVVGCSLATGFSPH [WDFY1] | – | – | 2.05 ± 0.28 | 2.34 ± 0.32
RKDPYGKPVDMWACGVILYILLVG [CAMK2D] | 2.53 ± 0.12 | 3.04 ± 1.1 | – | –
RKPAAGAQSAGTQQVAAVSSVSPA [BRD3] | 4.82 ± 0.12 | 4.86 ± 0.16 | – | –
RLLQEEDRRKKIARMGFNASSMLR [DCAF4] | 2.52 ± 0.22 | 2.57 ± 0.25 | – | –
RLQEVRESIRRAQVSQVKGAARLA [FCHSD1] | 3.17 ± 0.45 | 3.3 ± 0.28 | – | –
RNPDQRKESLCISITVSKVDKDQP [FBXO34] | 3.6 ± 0.41 | 3.88 ± 0.24 | – | –
RPQHSHSNKKRPSLDGRDPGNGTH [ELOA2] | 4.94 ± 0.44 | 4.82 ± 0.39 | – | –
RQDAKYLNMRSTYAKLAAVAVFFI [SEC22B] | 2.35 ± 0.4 | 2.15 ± 0.25 | – | –
RQDSPSPDFYKQSSPNLQVSSDGT [PCDHGC5] | 4.86 ± 0.34 | 4.88 ± 0.18 | – | –
RQVRDKTLKRGYFQKSLVLISKLP [DENND6A] | 2.27 ± 0.15 | 2.36 ± 0.41 | – | –
RRLRGEQRGQEPLGPGALHFDLRD [TCF25] | 4.24 ± 0.22 | 4.43 ± 0.21 | – | –
RRPVNVPLDMFSEEIKFYELGEEA [KCNA1] | 3.62 ± 0.33 | 3.84 ± 0.17 | – | –
RRVDFCKDPSAIGKKQVPCFASML [CASP6] | 2.43 ± 0.17 | 2.54 ± 0.23 | – | –
RSGAGVALLNDHIYVVGGFDGTAH [KLHL12] | 2.78 ± 0.43 | 2.37 ± 0.46 | – | –
RTVQSLEIDLDSMRNLKASLENSL [KRT18] | 3.14 ± 0.45 | 3.25 ± 0.27 | – | –
RVAAAAGSGPSPPGSPGHDRERQP [PI4K2A] | 5.31 ± 0.5 | 5.42 ± 0.27 | – | –
RVRGRVGTIRPVRCPSSSLHMSQR [C22orf15] | 3.14 ± 0.28 | 3.57 ± 0.19 | – | –

Sequence | protein stability index [1] | protein stability index [2] | protein stability index (treatment: DMSO, c terminus: native) | protein stability index (treatment: MLN4924 1 uM, 8 h, c terminus: native)
RVSAMRDYRGPDCRYLNFTKGEEI [MIA2] | 3.02 ± 0.58 | 3.26 ± 0.49 | – | –
RWEPSGKAEPRLPDRVYIHPDSPA [TBX6] | 3.98 ± 0.11 | 4.13 ± 0.18 | – | –
RYHRFISFALYLAGFCMFVLSLVK [CDS1] | 2.02 ± 0.21 | 2.08 ± 0.44 | – | –
RYIVNGSHEANKLQDMLDGFIKKF [EIF5] | 1.98 ± 0.23 | 2.17 ± 0.34 | – | –
SAAHEVELQRQKEAEKLERQLALP [NOP53] | 4.99 ± 0.33 | 5.19 ± 0.23 | – | –
SAAVRGHPRALPPDARPHRRPHEL [HAGHL] | 4.404 ± 0.036 | 4.47 ± 0.13 | – | –
SATLRSFEGLMGTIKSKVSGGKRA [TPD52L3] | 3.51 ± 0.18 | 3.33 ± 0.56 | – | –
SCEEVAASSASLEPMWSGSTMRRM [EMID1] | 4.09 ± 0.3 | 4.35 ± 0.18 | – | –
SCKACGYRGMLDTHHKLCTFILKN [EIF5] | 2.55 ± 0.35 | 2.77 ± 0.46 | – | –
SCPNGMSAENGLEKSGFSQHQNKS [DLC1] | 4.86 ± 0.17 | 5.06 ± 0.11 | – | –
SDLNTNNLLFKPPVESHIQKNKKI [KMT2E] | 4.31 ± 0.16 | 4.45 ± 0.39 | – | –
SDSIAYDKGEKLLRCKLAAFYRLA [ADD1] | 2.33 ± 0.49 | 2.34 ± 0.28 | – | –
SDTEAQCEVMQEIVDQVLEEDFDS [INTS3] | 5.56 ± 0.091 | 5.42 ± 0.34 | – | –
SEEDGEARTQMILLRRSVEGASSD [PHTF1] | 5.18 ± 0.21 | 5.23 ± 0.12 | – | –
SEKGKPYVDIQGLTASTMEILLDF [KLHL12] | 2.06 ± 0.5 | 2.25 ± 0.6 | – | –
SESETSTMAAKKNRQSSDKQNGRV [C18orf25] | 5.35 ± 0.17 | 5.16 ± 0.17 | – | –
SFWNDCISSGLRGCMLIELALRGR [GOLPH3] | 2.71 ± 0.35 | 2.66 ± 0.75 | – | –
SGAEGHSHSCYHDTRSGFWYVCRT [TRIM35] | 2.45 ± 0.17 | 2.64 ± 0.24 | – | –
SGATTTAPSLSGKGNPEEEDVDTS [CTNNB1] | 5.61 ± 0.31 | 5.62 ± 0.17 | – | –
SGFSARERLERAVSDRLAPGAPRG [MYCL] | 4.13 ± 0.3 | 4.16 ± 0.2 | – | –
SGGYGQDALGMDPMMEHEMGGHHP [CTNNB1] | 4.65 ± 0.18 | 4.69 ± 0.23 | – | –
SGLDDFFLDIDTSAVEKEPARAPP [SERTAD3] | 4.71 ± 0.24 | 4.75 ± 0.31 | – | –

Sequence | protein stability index [1] | protein stability index [2] | protein stability index (treatment: DMSO, c terminus: native) | protein stability index (treatment: MLN4924 1 uM, 8 h, c terminus: native)
SGRPHLPGKKKIRWDPVRRRFIQS [KLHDC10] | 3.35 ± 0.26 | 3.21 ± 0.4 | – | –
SIGDIESCKLVRDKITGQSLGYGF [ELAVL3] | 2.72 ± 0.21 | 2.55 ± 0.17 | – | –
SILNSCEDPVPGMLFFLPPGQHLS [FBXO34] | 2.46 ± 0.2 | 2.41 ± 0.22 | – | –
SKRMTFQMPKFDLGPLLSEPLVLY [MYOZ1] | 2.36 ± 0.39 | 2.26 ± 0.28 | – | –
SKVIEILDSQTEIYQYVQNSMAPH [DLC1] | 2.6 ± 0.3 | 2.71 ± 0.28 | – | –
SLAHCRHDGEDVACPQGGVQYGAG [LOXL2] | 4.65 ± 0.5 | 3.96 ± 0.41 | – | –
SLDKVQRSLGPRAPSLRRHVLIHN [SERTAD3] | 3.02 ± 0.32 | 2.96 ± 0.29 | – | –
SLLSKARGIDSSSVKLRGSSLFMD [WEE1] | 2.75 ± 0.2 | 2.49 ± 0.19 | – | –
SLPQNQCYMATTKSQTACLPFVLA [EHMT1] | 2.35 ± 0.08 | 2.23 ± 0.15 | – | –
SLTDSVNHHSPGGSSDASGSYSST [ESRRG] | 4.99 ± 0.28 | 5.1 ± 0.15 | – | –
SMTAGVSEREANDALNAYVCKGLP [INTS3] | 4.37 ± 0.16 | 4.38 ± 0.14 | – | –
SMVPPSPAMAASKALGSDLDSSLA [SNAP91] | 4.59 ± 0.097 | 4.6 ± 0.26 | – | –
SNLQAMSTQMFQTKRCFRLAPTFS [SMG5] | 2.17 ± 0.36 | 2.2 ± 0.14 | – | –
SNTGSESNSATVEEPPTDPIPEDE [SMARCE1] | 5.48 ± 0.45 | 5.33 ± 0.51 | – | –
SPEQQFDRSVQRLLATRIAVYLMT [TMEM175] | 2.31 ± 0.51 | 2.43 ± 0.66 | – | –
SPEVESLPVASSSTLLPLAPSNST [NFE2L1] | 5.04 ± 0.23 | 5.27 ± 0.13 | – | –
SPKGTLPPAALESSDSANTTIEDE [CAMK2B] | 5.64 ± 0.16 | 5.54 ± 0.29 | – | –
SPNLNVVDGRLTYPTCGIGYPVSS [SASS6] | 3.06 ± 0.44 | 3.14 ± 0.4 | – | –
SPRSTSVTTTSSASVTTTSNASGR [KRT13] | 5.31 ± 0.2 | 5.32 ± 0.12 | – | –
SPSHKGIAAPHAGANVKPRNSTPP [ZC2HC1A] | 4.92 ± 0.092 | 4.86 ± 0.54 | – | –
SPSSDRVSAIIWEGNECKKMDMSV [PHTF1] | 3.6 ± 0.26 | 3.73 ± 0.43 | – | –
SPWADGTPCGPAQACMGGRCLHMD [ADAMTS4] | 4.28 ± 0.21 | 4.47 ± 0.36 | – | –

Sequence | protein stability index [1] | protein stability index [2] | protein stability index (treatment: DMSO, c terminus: native) | protein stability index (treatment: MLN4924 1 uM, 8 h, c terminus: native)
SQIQGLIGSVEEQLAQLRCEMEQQ [KRT16] | 4.387 ± 0.042 | 4.52 ± 0.28 | – | –
SQMVSTDNSLSSQNYISQKEDASE [MIA2] | 5.29 ± 0.44 | 5.21 ± 0.26 | – | –
SQPLDREATSHYIIELLASDAGSP [PCDHGC5] | 3.33 ± 0.27 | 3.52 ± 0.2 | – | –
SRRYTEMALPFFSLAEVRVGYQSQ [MYORG] | 2.3 ± 0.16 | 2.29 ± 0.039 | – | –
SRSHDRLPYQRRYRERRDSDTYRC [CLK3] | 4.09 ± 0.27 | 4.24 ± 0.36 | – | –
SRVTASSGITIPKPPKPPDKPLMP [SMARCE1] | 3.78 ± 0.25 | 3.94 ± 0.18 | – | –
SSAPDLMCLSPDRKMEVEELSPLA [CDC25B] | 5 ± 0.37 | 5 ± 0.22 | – | –
SSGGSSGSSSDNRTYRYSNRYCGG [DYRK1B] | 4.04 ± 0.23 | 4.07 ± 0.12 | – | –
SSKTITAEIPDGPPVVAHYDMSDT [C18orf25] | 5.14 ± 0.14 | 4.96 ± 0.23 | – | –
SSRDKLTEMAASSQGNFEGNFESL [FUNDC2] | 4.88 ± 0.28 | 5.03 ± 0.42 | – | –
SSRSTVPTPAKRRSSALWSEMLDI [NET1] | 2.62 ± 0.25 | 2.96 ± 0.46 | – | –
SSSSASADLLAGFGGSFMAPSPSP [SNAP91] | 4.24 ± 0.1 | 4.3 ± 0.24 | – | –
SSSSSSSWLTRRAIRPENRAPGAG [EMD] | 4.33 ± 0.25 | 4.16 ± 0.25 | – | –
STRWEVIAEDGTKEIESQGSIPGF [TAF7L] | 4.58 ± 0.067 | 4.54 ± 0.3 | – | –
SYAFGKFPTVVWTWWIMFLSTFSV [SOAT1] | 2.98 ± 0.57 | 2.97 ± 0.29 | – | –
SYPVMGFEFQVRVCDSCYDSIKDE [WDFY1] | 2.76 ± 0.18 | 3.06 ± 0.39 | – | –
SYSRLCRESGAEPQEAVLQQLHQL [LRRC45] | 3.71 ± 0.29 | 3.71 ± 0.19 | – | –
TAAASRERQEEQSAAIHISETLEQ [EPB41L3] | 5.5 ± 0.061 | 5.4 ± 0.52 | – | –
TAHMLGVRELRIAFREFDRDRDGR [CABP4] | 3.68 ± 0.34 | 3.7 ± 0.076 | – | –
TAKNSRVVCGMFGFPGERTYNTKV [LOXL2] | 2.6 ± 0.3 | 2.63 ± 0.067 | – | –
TALLGGPRRCHSAPPQGSCGDELP [PLEKHN1] | 4.1 ± 0.3 | 4.45 ± 0.47 | – | –
TAQHQRRLAAIAQEKDQEMERLRE [FBF1] | 5.36 ± 0.17 | 5.42 ± 0.14 | – | –
